This experiment has as its target T1, BiP/GRP78 (endogenous) (human (endogenous in human HeLa cells), UniProt P11021 19-654).
T1 construct: Immunoprecipitated from cell lysates with BiP/GRP78 antibodies; also called ER chaperone BiP/GRP78
As to the kind of experiment: co-IP with BiP/GRP78 antibodies, blot with Flag antibodies; wild type against C/F mutants; HeLa and P69 cells. The source says:
These mutants were used to examine whether disruption of these regions altered interaction with BiP/GRP78 in HeLa (FIG. 11E) and P69 cells. BiP/GRP78 was immunoprecipitated using BiP/GRP78 antibodies and the membrane was probed with Flag antibodies (FIG. 11E). The C/F helix mutants of MDA-7/1IL-24 and M4 lost their ability to bind to BiP/GRP78 (FIG. 11E).
Cells were infected with Ad.vec, Ad.M4 or Ad.mda-7 or transfected with various plasmid (Flag tagged MDA7 or M4 and Myc tagged BiP) constructs in a 100-mm dish and after 48 h cells were rinsed with ice-cold phosphate buffered saline (PBS). Cells were lysed in 1 ml of immunoprecipitation buffer containing 25 mM Tris-Cl pH8.0, 137 mM NaCl, 2.5 mM KCl, 1% Triton X-100 and protease inhibitor mix. Cells were scrapped from the plates, transferred into microfuge tubes and rotated at 4° C. for 30 minutes. Tubes were centrifuged for 10 min at 13,000 rpm and 10 μl of supernatant were incubated with 50% Protein A agarose and rotated at 4° C. for 1 h to eliminate non-specific interactions. Samples were centrifuged and mixed with anti BiP/Grp78 or 9E10 myc monoclonal antibodies (1:200) dilution and rotated overnight at 4° C. Immune-complexes were precipitated with 25 μl of 50% protein A agarose for 2 h. […]

T1 sequence (P11021 19-654 limits assumed): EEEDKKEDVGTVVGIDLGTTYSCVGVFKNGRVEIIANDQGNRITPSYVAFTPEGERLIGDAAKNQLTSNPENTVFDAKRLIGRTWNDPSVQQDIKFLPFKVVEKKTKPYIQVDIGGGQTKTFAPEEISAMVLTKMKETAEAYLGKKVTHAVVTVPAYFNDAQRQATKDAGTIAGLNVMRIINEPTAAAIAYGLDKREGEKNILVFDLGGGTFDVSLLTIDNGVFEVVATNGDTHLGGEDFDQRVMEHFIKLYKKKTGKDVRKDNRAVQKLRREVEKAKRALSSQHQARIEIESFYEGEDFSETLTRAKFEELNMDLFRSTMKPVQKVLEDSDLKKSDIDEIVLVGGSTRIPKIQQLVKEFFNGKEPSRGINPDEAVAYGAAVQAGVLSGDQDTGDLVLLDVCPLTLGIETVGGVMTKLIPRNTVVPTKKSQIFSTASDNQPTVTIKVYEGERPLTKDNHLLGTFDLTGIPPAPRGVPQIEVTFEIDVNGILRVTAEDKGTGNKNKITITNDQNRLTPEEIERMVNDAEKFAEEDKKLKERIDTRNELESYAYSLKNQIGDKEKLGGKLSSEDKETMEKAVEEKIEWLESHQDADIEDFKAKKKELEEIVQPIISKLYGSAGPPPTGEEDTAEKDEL

B1: Flag-tagged M4 (amino acids 104-206 of MDA-7/IL-24, pCMV3xFlag) (other)
chain: ESCYLVHTLLEFYLKTVFKNYHNRTVEVRTLKSFSTLANNFVLIVSQLQPSQENEMFSIRDSAHRRFLLFRRAFKQLDVEAALTKALGEVDILLTWMQKFYKL
notes: Transiently expressed in HeLa cells; also called Flag M4; not shown: three Flag tags at the N-terminus from vector pCMV3xFlag (Sigma)
Turning to B1, the binding result is “binds”.
